For 2 sequences, binding results are on record in paper PMC9603416.

The series concerns the target T1, RR07-6xHis (Streptococcus pneumoniae R6) (UniProt Q8DRF5).
T1 sequence: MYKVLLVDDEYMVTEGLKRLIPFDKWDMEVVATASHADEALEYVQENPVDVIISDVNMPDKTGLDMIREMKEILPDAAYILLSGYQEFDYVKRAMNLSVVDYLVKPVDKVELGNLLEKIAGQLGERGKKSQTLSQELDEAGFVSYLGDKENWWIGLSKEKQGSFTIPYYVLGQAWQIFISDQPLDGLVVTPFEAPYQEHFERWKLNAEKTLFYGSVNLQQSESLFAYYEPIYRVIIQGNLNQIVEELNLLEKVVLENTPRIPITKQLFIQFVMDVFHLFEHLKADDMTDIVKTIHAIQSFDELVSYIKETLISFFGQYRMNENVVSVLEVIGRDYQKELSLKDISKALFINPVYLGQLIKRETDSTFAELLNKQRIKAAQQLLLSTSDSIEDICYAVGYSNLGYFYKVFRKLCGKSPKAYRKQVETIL
Briefly: EMSA. Conditions: EMSA: 1 nM dsDNA probe, increasing RR07, binding buffer 20 mM Tris-Cl (rest of the buffer, pH and temperature not in the material).

With “CACTGGTCTGGGGCACAAAGTAATTCATCCCAAAAGGCACGCCTGTGTATGGCAGGGTATTTCCCCGAGAGAAGGCATGCTTGCTAGCAGTACCAAAGCGGGTATCGATGGTTTCAAGTAGTGGTTTCATAGTCTTTCCTTTAGCTGTTTTTCTACATTATATCAGAAAAAGAGGGCCTTTAGAAAAGGAGTTTTAAAGATAACTATTTTGTAGAAAAATGACTATCATTTGTGTATGTATTTTCTGTCTCAAAAGCTATATACTGAACATGAAACTTGTTTGAAAGAGGGAATTGCACG (double strand) [Pgh125]”, the binding entry is given as “no binding”. As for “TGCAAAACCTCCTGATTGCATTGTTATATTGATAGCGATTATATAAATCAACGCCTTTATTTTATTTCTTATATTAACGAGAGTCAAGAGGAGATGACAAAAAACTATAATAAGTATAAAAAAATATAAAATTTAAACTTAAGATTTCAGATTGGTCGAAAAAATACATATATATATCTAGTATAATTTTTGGTTCTATTTCTATAAAATATTCCACAAATTATAGAATCTTCCAAAAATAGGTAAGCGCTACCTTTTTGGTGTGGTATAATAAGC (double strand) [PstrH]”, the entry is “no binding”.
